T1: hFR3^D2Fc (human, UniProt P22607 143-250)
T1 construct: Only domain 2 of the entry stood in the assay; also called product of pChFR3^D2Fc; not shown: human Fc
T1 sequence: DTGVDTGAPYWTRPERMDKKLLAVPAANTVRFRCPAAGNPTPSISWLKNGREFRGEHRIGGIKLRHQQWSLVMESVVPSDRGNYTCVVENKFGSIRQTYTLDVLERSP

T2: FR1exFc (UniProt P11362 22-376, limits assumed)
T2 construct: extracellular domain; also called FGFR1/Fc; FR1/Fc; not shown: Fc part; the construct of FR1exFc is not described
T2 sequence (looked up): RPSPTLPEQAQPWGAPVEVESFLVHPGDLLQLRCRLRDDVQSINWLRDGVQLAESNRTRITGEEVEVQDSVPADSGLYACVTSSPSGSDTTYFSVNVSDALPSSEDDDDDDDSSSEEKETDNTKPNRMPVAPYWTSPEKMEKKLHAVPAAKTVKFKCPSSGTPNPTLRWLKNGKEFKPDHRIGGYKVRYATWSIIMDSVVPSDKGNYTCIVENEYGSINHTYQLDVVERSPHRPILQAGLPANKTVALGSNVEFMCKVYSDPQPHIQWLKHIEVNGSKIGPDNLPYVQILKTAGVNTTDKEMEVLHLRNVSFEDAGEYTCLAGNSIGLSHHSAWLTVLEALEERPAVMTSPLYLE

B1: MS-Pro-21-dHLX-MH (Fab, V domains shown)
VH: QVQLVQSGAEVKKPGSSVKVSCKASGGTFSSYAISWVRQAPGQGLEWMGGIIPIFGTANYAQKFQGRVTITADESTSTAYMELSSLRSEDTAVYYCARDNWFKPFSDVWGQGTLVTVSS
VL: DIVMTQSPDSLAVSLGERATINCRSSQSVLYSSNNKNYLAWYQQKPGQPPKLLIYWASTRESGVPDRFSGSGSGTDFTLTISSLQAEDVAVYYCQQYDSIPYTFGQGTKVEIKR
notes: Fab mini-antibody format Fab-dHLX-MH, a dimer of the Fab monomer; also called MSPRO21 dimeric dHLX format; Fab-dHLX
B2: MSPRO21 (Fab, V domains shown)
VH: QVQLVQSGAEVKKPGSSVKVSCKASGGTFSSYAISWVRQAPGQGLEWMGGIIPIFGTANYAQKFQGRVTITADESTSTAYMELSSLRSEDTAVYYCARDNWFKPFSDVWGQGTLVTVSS
VL: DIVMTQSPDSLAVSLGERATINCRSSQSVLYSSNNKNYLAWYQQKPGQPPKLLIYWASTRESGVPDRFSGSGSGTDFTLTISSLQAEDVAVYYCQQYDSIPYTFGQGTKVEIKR
B3: MS-Pro-2-dHLX-MH (Fab, V domains shown)
VH: QVQLVQSGAEVKKPGASVKVSCKASGYTFTSYYMHWVRQAPGQGLEWMGWINPNSGGTNYAQKFQGRVTMTRDTSISTAYMELSSLRSEDTAVYYCARDFLGYEFDYWGQGTLVTVSS
VL: DIELTQPPSVSVAPGQTARISCSGDALGDKYASWYQQKPGQAPVLVIYDDSDRPSGIPERFSGSNSGNTATLTISGTQAEDEADYYCQSYDYSADYVFGGGTKLTVLG
notes: Fab mini-antibody format Fab-dHLX-MH, a dimer of the Fab monomer made as a fusion protein; also called MSPRO2 dimeric dHLX format; Fab-dHLX
B4: MSPRO2 (Fab, V domains shown)
VH: QVQLVQSGAEVKKPGASVKVSCKASGYTFTSYYMHWVRQAPGQGLEWMGWINPNSGGTNYAQKFQGRVTMTRDTSISTAYMELSSLRSEDTAVYYCARDFLGYEFDYWGQGTLVTVSS
VL: DIELTQPPSVSVAPGQTARISCSGDALGDKYASWYQQKPGQAPVLVIYDDSDRPSGIPERFSGSNSGNTATLTISGTQAEDEADYYCQSYDYSADYVFGGGTKLTVLG
B5: MS-Pro-12-dHLX-MH (Fab, V domains shown)
VH: QVQLKESGPALVKPTQTLTLTCTFSGFSLSTSGVGVGWIRQPPGKALEWLALIDWDDDKYYSTSLKTRLTISKDTSKNQVVLTMTNMDPVDTATYYCARYHSWYEMGYYGSTVGYMFDYWGQGTLVTVSS
VL: DIELTQPPSVSVAPGQTARISCSGDALGDKYASWYQQKPGQAPVLVIYDDSDRPSGIPERFSGSNSGNTATLTISGTQAEDEADYYCQSYDFDFAVFGGGTKLTVLG
notes: Fab mini-antibody format Fab-dHLX-MH, a dimer of the Fab monomer; also called MSPRO12 dimeric dHLX format; Fab-dHLX
B6: MSPRO29 (Fab, V domains shown)
VH: QVQLVQSGAEVKKPGASVKVSCKASGYTFTSYYMHWVRQAPGQGLEWMGWINPNSGGTNYAQKFQGRVTMTRDTSISTAYMELSSLRSEDTAVYYCARTWQYSYFYYLDGGYYFDIWGQGTLVTVSS
VL: DIVLTQSPATLSLSPGERATLSCRASQSVSSSYLAWYQQKPGQAPRLLIYGASSRATGVPARFSGSGSGTDFTLTISSLEPEDFATYYCQQTNNAPVTFGQGTKVEIKR
B7: iodinated MSPRO29 (Fab, V domains shown)
VH: QVQLVQSGAEVKKPGASVKVSCKASGYTFTSYYMHWVRQAPGQGLEWMGWINPNSGGTNYAQKFQGRVTMTRDTSISTAYMELSSLRSEDTAVYYCARTWQYSYFYYLDGGYYFDIWGQGTLVTVSS
VL: DIVLTQSPATLSLSPGERATLSCRASQSVSSSYLAWYQQKPGQAPRLLIYGASSRATGVPARFSGSGSGTDFTLTISSLEPEDFATYYCQQTNNAPVTFGQGTKVEIKR
modifications: iodinated with IodoGen (cold NaI at 0.04 mM or 1 mM, or 125I); sites not stated
notes: MSPRO29 Fab after iodination; which preparation (low I, high I, 125I) is told in each row; also called modified MSPRO29 (low I; high I)

What was measured:
[1] = target: T3, FR3exFc (human); assay: BIAcore, Fab-dHLX-MH miniantibody; Fab-dHLX-MH miniantibody (dimer)
T3 construct: also called FGFR3/Fc; FR3/Fc

[2] = target: T4, FGFR3 (wild type) on cells (human, UniProt P22607 23-806); assay: cell-based or functional assay
[3] = target: T4, FGFR3 (wild type) on cells; assay: FACS
[4] = target: T3, FR3exFc; assay: BIACORE
Description: (§1) The affinity measurements were performed by BIACORE® analysis according to the standard procedure recommended by the supplier (Pharmacia). The anti-Fc antibody was coupled via the EDC/NHS chemistry to the chip and subsequently FGFR3 was captured. The Fabs of the invention were then bound to this surface.

[5] = target: T4, FGFR3 (wild type) on cells; assay: indirect FACS-Scatchard; indirect FACS-Scatchard, Table 5 (Table 1C gives 1.1 nM)
[6] = target: T1, hFR3^D2Fc; assay: ELISA, Fc fusion anchored on an anti-human Fc coated plate, bound Fab detected with HRP anti-human Fab
From the text: Constructs comprising cDNAs that code for segments of the extracellular domain of FGFR3 were generated (FIG. 10). D2 comprises Ig domain 2, D2-3 comprises Ig domains 2 and 3, and D1-3 comprises Ig domains 1, 2 and 3. These constructs include pChFR3^D2Fc that codes for Ig-like domain 2 of FGFR3 and pChFR3^{D2,3}Fc that codes for domain 2 and 3, both as human Fc fusions. The corresponding chimeric proteins, as well as the control hFR3exFc (containing domains 1, 2 and 3) were anchored to an ELISA plate coated with a human Fc antibody. A panel of 8 best Fabs, MSPRO2, 11, 12, 21, 24, 26, 28 and 29, were added, and bound Fab was determined with HRP-α human Fab (FIG. 11). […] Both bind to the Ig like domain 2 while the others require domain 3 for binding. It was then tested whether or not Fabs that belong to the second group would distinguish the FGFR3IIIc isoform from the FGFRIIIb from. FDCP-FR3IIIb or FDCP-FR3IIIc cells were incubated in the presence of 1.25 ng/ml FGF9 with increasing doses of either MSPRO12 or MSPRO29. Ly6.3 was included as control. After 2 days in culture, cell proliferation was measured with the XTT reagent. Clearly, MSPRO29 (open triangle) was completely ineffective against the IIIb isoform (FIG. 12).

[7] = target: T3, FR3exFc; assay: BIAcore; number in parentheses taken as the monomeric Fab; monomeric Fab, value in parentheses of Table 1E (Tables 1C and 5 give 9 nM)
[8] = target: T4, FGFR3 (wild type) on cells; assay: cell-based or functional assay; remark: listed apart in the source
[9] = target: T3, FR3exFc; assay: BIACORE, FGFR3 captured on an anti-Fc chip
Description: as §1

[10] = target: T3, FR3exFc; assay: BIACORE, FGFR3 captured on an anti-Fc chip; remark: listed apart in the source
Description: as §1

[11] = target: T2, FR1exFc; assay: ELISA, FGFR/Fc captured on anti-human Fc coated plate, detection with anti-human Fab-HRP
[12] = target: T4, FGFR3 (wild type) on cells; assay: indirect FACS-Scatchard
[13] = target: T3, FR3exFc; assay: BIAcore; number in parentheses taken as the monomeric Fab; monomeric Fab, not miniantibody
[14] = target: T4, FGFR3 (wild type) on cells; assay: cell-based or functional assay; remark: listed apart in the source
[15] = target: T3, FR3exFc; assay: BIAcore, Fab-dHLX-MH miniantibody
[16] = target: T2, FR1exFc; assay: Affinity to FGFR1 (BIACORE and/or FACS)
[17] = target: T3, FR3exFc; assay: ELISA, FGFR3/Fc anchored on anti-human Fc coated wells, about 5 µg Fab per well (labelled with cold iodine at 0.04 mM NaI), detection with anti-human Fab; parallel wells without FR3/Fc
Description: To determine the effect of iodination on Fab activity, 50 μg of MSPRO29 was first labeled with cold iodine using Pierce IodoGen coated tubes. The process was carried out either without iodine, with 0.04 mM NaI (low I) or with 1 mM NaI (high I). MSPRO29 was then purified through a SEPHADEX® G-50 column. The ability of the modified Fab to bind FGFR3 was determined by ELISA. MAXISORP® wells were coated with anti-human Fc. FGFR3/Fc was then anchored to the wells. In parallel, a similar set of wells was left in blocking buffer only (no FR3/Fc, hatched bars). The unmodified (no I) or the modified MSPRO29 (low or high, 2 G-50 fractions each, 1 and 2) were added at approximately 5 μg/well and binding was measured with anti-human Fab. Fresh MSPRO29 and buffer alone were included as controls (FIG. 14: FGFR3/Fc, checkered bars; no FGFR3/Fc, hatched bars). MS-PRO29 was labeled with 1 mCi ¹²⁵I. The specific activity of the Fab was 17 μCi/μg.

T4 sequence (P22607 23-806 limits assumed): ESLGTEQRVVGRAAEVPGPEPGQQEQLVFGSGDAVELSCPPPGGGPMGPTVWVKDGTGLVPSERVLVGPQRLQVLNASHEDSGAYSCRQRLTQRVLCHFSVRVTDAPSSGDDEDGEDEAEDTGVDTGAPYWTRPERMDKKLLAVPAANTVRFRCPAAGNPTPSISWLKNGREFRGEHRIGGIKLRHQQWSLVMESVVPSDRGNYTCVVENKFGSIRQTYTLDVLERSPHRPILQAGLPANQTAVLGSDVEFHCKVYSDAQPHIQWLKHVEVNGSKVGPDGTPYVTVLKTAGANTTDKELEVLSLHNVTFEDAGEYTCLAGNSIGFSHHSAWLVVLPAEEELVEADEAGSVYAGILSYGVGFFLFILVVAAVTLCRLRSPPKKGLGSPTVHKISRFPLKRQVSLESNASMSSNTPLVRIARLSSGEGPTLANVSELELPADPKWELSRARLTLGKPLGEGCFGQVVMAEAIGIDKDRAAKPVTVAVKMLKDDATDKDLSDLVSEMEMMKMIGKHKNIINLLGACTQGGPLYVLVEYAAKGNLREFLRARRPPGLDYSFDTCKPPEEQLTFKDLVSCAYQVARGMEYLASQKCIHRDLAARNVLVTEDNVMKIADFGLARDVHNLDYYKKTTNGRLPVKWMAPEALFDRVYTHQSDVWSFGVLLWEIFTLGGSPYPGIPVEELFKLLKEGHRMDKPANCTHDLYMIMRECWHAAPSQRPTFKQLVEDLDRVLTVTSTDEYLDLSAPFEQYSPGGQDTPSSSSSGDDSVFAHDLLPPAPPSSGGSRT
T3 sequence (chain, as listed by the source limits assumed): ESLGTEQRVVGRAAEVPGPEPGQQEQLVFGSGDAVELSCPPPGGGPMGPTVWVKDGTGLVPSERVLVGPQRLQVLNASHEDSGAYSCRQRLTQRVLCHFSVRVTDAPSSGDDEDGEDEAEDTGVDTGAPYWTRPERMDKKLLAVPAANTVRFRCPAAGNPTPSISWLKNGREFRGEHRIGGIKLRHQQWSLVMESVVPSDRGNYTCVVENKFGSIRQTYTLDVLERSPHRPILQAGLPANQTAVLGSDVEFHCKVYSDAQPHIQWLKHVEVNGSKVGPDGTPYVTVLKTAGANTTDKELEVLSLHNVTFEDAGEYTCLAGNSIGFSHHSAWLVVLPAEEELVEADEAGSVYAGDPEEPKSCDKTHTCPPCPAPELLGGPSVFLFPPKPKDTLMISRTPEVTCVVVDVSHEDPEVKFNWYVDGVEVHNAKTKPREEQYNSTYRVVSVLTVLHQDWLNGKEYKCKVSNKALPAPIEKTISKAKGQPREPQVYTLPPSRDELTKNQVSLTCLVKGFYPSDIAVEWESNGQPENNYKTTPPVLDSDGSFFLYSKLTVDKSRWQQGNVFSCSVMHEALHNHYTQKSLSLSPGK

| Binder | IC50, FDCP-FGFR3 proliferation assay with FGF9, dimeric dHLX format [2] | Kd [3] | koff [4] | IC50 FR3 (FGF9), FDCP-FGFR3 proliferation assay [8] | Kd [9] | Kd [10] | other results |
| --- | --- | --- | --- | --- | --- | --- | --- |
| B1 | 20 nM |  |  |  |  |  | Kd [1]: 2.2 nM |
| B2 |  | 1.1 nM | 0.0036 s⁻¹ | 50 nM | 9 nM | 9 nM | Kd [5]: 0.6 nM; binding result [6]: no binding; IC50, FDCP-FGFR3 proliferation assay with FGF9, monomeric Fab (in parentheses) [2]: 50 nM; Kd [7]: 4.1 nM |
| B3 | 61 nM |  |  |  |  |  | binding result [11]: no binding; Kd [1]: 4.3 nM |
| B4 |  | 43 nM | 0.02 s⁻¹ | 360 nM | 37 nM | 37 nM | Kd [12]: 43 nM; Kd [13]: 37 nM; IC50, FDCP-FGFR3 proliferation assay with FGF9, monomeric Fab (in parentheses) [2]: 360 nM; IC50 of inhibition of FDCP-FR3 proliferation with FGF9 (XTT) [14]: ~1 µg/mL |
| B5 | 26 nM |  |  |  |  |  | binding result [11]: no binding; Kd [15]: 1.2 nM |
| B6 |  | < 1 nM | 0.0014 s⁻¹ | 20 nM | 6 nM | 6 nM | Kd [12]: 0.4 nM; Kd [16]: 29 nM; binding result [6]: no binding; amount of Fab that inhibits FGFR3 activation (JNK signaling) in RCJ-FR3 cells [14]: < 5 µg |
| B7 |  |  |  |  |  |  | binding result [17]: binds |

Reference: US20090202547A1 (FIBRON, published 2009)
